Target: T1, biotinylated CD59 (Homo sapiens, UniProt P13987)
T1 construct: Recombinant soluble human CD59 with an additional C-terminal cysteine residue
T1 sequence (P13987 26-102 limits assumed): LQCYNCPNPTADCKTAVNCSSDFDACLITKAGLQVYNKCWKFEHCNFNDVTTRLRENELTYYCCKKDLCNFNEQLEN
Test: mRNA-display cyclic peptide screen against CD59-biotin, NGS abundance after 6th selection round
Settings: for Counts (raw counts for peptide sequence), Seq I: NGS sample Seq I; for Counts (raw counts for peptide sequence), Seq I / Counts (raw counts for peptide sequence), Seq II / Counts Seq I / Counts Seq II: sheet R6 (6th selection round); for Counts (raw counts for peptide sequence), Seq II: NGS sample Seq II; for Percentage of the pool, averaged across the two sequencing samples: average of Seq I and Seq II; for Percentage of the pool, averaged across the two sequencing samples / Percentage of the pool, Seq I / Percentage of the pool, Seq II / Percentage Seq I / Percentage Seq II / Percentage Average: sheet R6; for Percentage of the pool, Seq I: counts normalised by total counts of NGS sample Seq I; for Percentage of the pool, Seq II: counts normalised by total counts of NGS sample Seq II; for Percentage Seq I: counts normalised by total counts of sample Seq I; for Percentage Seq I / Percentage Seq II: percentage of the pool; for Percentage Seq II: counts normalised by total counts of sample Seq II; for Percentage Average: percentage of the pool averaged across the two sequencing samples; for Counts Seq I / Counts Seq II: raw NGS counts of peptide sequence; for Counts Seq I: sequencing sample Seq I; for Counts Seq II: sequencing sample Seq II
Outline: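 Peptide–mRNA fusions were made by in vitro translation with a customised PURE express kit. The kit lacked release factor 1 and methionine and was supplemented with […] initiator tRNA carrying N-chloroacetyl-d-tyrosine. Thioether macrocycles were formed, then enriched and amplified over iterative rounds on CD59-biotin immobilised on streptavidin beads. NGS read counts per sequence were recorded after the 6th selection round.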

Sequence | Counts (raw counts for peptide sequence), Seq I | Counts (raw counts for peptide sequence), Seq II | Percentage of the pool, averaged across the two sequencing samples | Percentage of the pool, Seq I | Percentage of the pool, Seq II | Percentage Seq I | Percentage Seq II | Percentage Average | Counts Seq I | Counts Seq II
RTCHLRHDGPHA | 59 | 6 | 0.014% | 0.013% | 0.014% | – | – | – | – | –
SSYRELAHLPC | – | – | – | – | – | 0.031% | 0.046% | 0.039% | 135 | 20
QWNRWYGMDEL | – | – | – | – | – | 0.284% | 0.260% | 0.272% | 1243 | 112
SARGNRQIQYY | – | – | – | – | – | 0.026% | 0.028% | 0.027% | 114 | 12
CFLKRDRSASI | 56 | 7 | 0.015% | 0.013% | 0.016% | – | – | – | – | –
TFRSRTSCGAV | 51 | 7 | 0.014% | 0.012% | 0.016% | – | – | – | – | –
SAWGNRQIKYY | 65 | 6 | 0.014% | 0.015% | 0.014% | – | – | – | – | –
STWGNRNETRG | – | – | – | – | – | 0.029% | 0.026% | 0.028% | 129 | 11
YIIGSSDYTRG | – | – | – | – | – | 0.033% | 0.039% | 0.036% | 146 | 17
WVYGSRYWRSI | – | – | – | – | – | 0.030% | 0.014% | 0.022% | 132 | 6
CAWGNRYTAYY | 68 | 5 | 0.014% | 0.016% | 0.012% | – | – | – | – | –
SWTWGNRSSVRG | – | – | – | – | – | 2.910% | 2.799% | 2.855% | 12733 | 1206
SAYGSRDFAWA | – | – | – | – | – | 0.024% | 0.023% | 0.024% | 106 | 10
WRDRFDQCVI | 37 | 5 | 0.010% | 0.00846% | 0.012% | – | – | – | – | –
FVRGDLNSVLG | 69 | 5 | 0.014% | 0.016% | 0.012% | – | – | – | – | –
SSWAQLPCKR | – | – | – | – | – | 0.039% | 0.030% | 0.035% | 170 | 13
SRGGKDWSRG | – | – | – | – | – | 0.235% | 0.251% | 0.243% | 1026 | 108
SAWGSRQIQYY | – | – | – | – | – | 0.059% | 0.051% | 0.055% | 257 | 22
ISWGNGSLAFY | – | – | – | – | – | 0.147% | 0.116% | 0.132% | 643 | 50
ARGGPTWSRG | – | – | – | – | – | 0.034% | 0.037% | 0.035% | 147 | 16
SAWGNRQIQYF | – | – | – | – | – | 0.023% | 0.030% | 0.027% | 102 | 13
LWWSDFYLCVVVRQRQRQLGRGAE | 65 | 7 | 0.016% | 0.015% | 0.016% | – | – | – | – | –
